Measurements: US12295987B2, “Method of using a GIP/GLP1 co-agonist for diabetes” (Eli Lilly and Company, priority 2018, dated 2025)

Biological target: T1, human gastric inhibitory peptide receptor (hGIPR) (Homo sapiens, UniProt P48546)
T1 construct: expressed in transfected cells; host or cells: HEK293
T1 sequence (P48546 22-466): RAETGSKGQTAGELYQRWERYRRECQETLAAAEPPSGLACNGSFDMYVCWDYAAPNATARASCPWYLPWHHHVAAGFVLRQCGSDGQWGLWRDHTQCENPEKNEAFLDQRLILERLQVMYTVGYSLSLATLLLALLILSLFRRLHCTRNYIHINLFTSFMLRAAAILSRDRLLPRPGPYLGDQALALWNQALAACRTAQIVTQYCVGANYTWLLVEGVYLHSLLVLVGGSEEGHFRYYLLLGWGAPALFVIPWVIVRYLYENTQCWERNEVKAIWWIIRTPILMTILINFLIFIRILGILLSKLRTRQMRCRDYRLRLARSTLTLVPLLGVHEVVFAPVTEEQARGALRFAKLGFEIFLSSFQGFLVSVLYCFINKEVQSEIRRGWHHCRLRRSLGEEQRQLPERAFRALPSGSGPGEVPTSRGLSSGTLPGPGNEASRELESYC
Assay: cAMP pharmacological functional assay in presence of 0.1% casein, hGIPR
Format: cell-based
Conditions: ratio of hGIPR to hGLP1R cAMP EC50 ratios
Procedure: Each receptor over-expressing cell line (20 μl) is treated with the test peptide in DMEM (Gibco Cat #31053) supplemented with 0.1% Casein (Sigma Cat #C4765), 250 μM IBMX, 1× GlutaMAX™ (Gibco Cat #35050), and 20 mM HEPES (HyClone Cat #SH30237.01) in a 20 μl assay volume. […] EC50 is the concentration of compound causing half-maximal simulation in a dose response curve. A relative EC50 value is derived by non-linear regression analysis using the percent maximal response vs. the concentration of peptide added, fitted to a four-parameter logistic equation.
Intracellular cAMP levels are determined by extrapolation using a standard curve. Dose response curves of compounds are plotted as the percentage of stimulation normalized to minimum (buffer only) and maximum (maximum concentration of each control ligand) values and analyzed using a four parameter non-linear regression fit with a variable slope (Genedata Screener 13). EC50 is the concentration of compound causing half-maximal simulation in a dose response curve.
EC50 is the concentration of compound causing half-maximal simulation in a dose response curve.

Substance	[hGIPR/hGLP1R] EC50 Ratio
Y-Aib-EGT-αMeF(2F)-TSD-4Pal-SI-αMeL-LDKK((2-[2-(2-Amino-ethoxy)-ethoxy]-acetyl)-(γGlu)-(2-[2-(2-Amino-ethoxy)-ethoxy]-acetyl)-CO—(CH2)18—CO2H)AQ-Aib-EFI-(D-Glu)-YLIEGGPSSGAPPPS-NH2 (YXEGTXTSDXSIXLDKKAQXEFIXYLIEGGPSSGAPPPS; Aib, αMeF(2F), 4Pal, αMeL, D-Glu; lipidated K; amide; (2)..(2) Xaa at position 2 is Aib; (6)..(6) Xaa at position 6 is alpha-methyl-Phe(2F); (10)..(10) Xaa at position 10 is 4Pal; (13)..(13) Xaa at position 13 is alpha-methyl-Leu; MOD_RES (17)..(17) Lys at position 17 is chemically modified by conjugation of the epsilon-amino group of the Lys side chain with (2-[2-(2-Amino-ethoxy)-ethoxy]-acetyl)-(gamma-Glu)-(2-[2-(2-Amino- ethoxy)-ethoxy]-acetyl)-CO) [Peptide 202]	6.73
Y-Aib-EGT-αMeF(2F)-TSD-cTA-SI-αMeL-LDEK((2-[2-(2-Amino-ethoxy)-ethoxy]-acetyl)2-(γGlu)-CO—(CH2)18—CO2H)AQ-Aib-EFIEYLIEGGPSSGAPPPS-NH2 (YXEGTXTSDXSIXLDEKAQXEFIEYLIEGGPSSGAPPPS; Aib, cTA, αMeF(2F), αMeL; acylated lysine C20 diacid; amide; (2)..(2) Xaa at position 2 is Aib; (6)..(6) Xaa at position 6 is alpha-methyl-Phe(2F); (10)..(10) Xaa at position 10 is cTA; (13)..(13) Xaa at position 13 is alpha-methyl-Leu; MOD_RES (17)..(17) Lys at position 17 is chemically modified by conjugation of the epsilon-amino group of the Lys side chain with (2-[2-(2-amino-ethoxy)-ethoxy]-acetyl)2-(gamma-Glu)-CO-(CH2)18- CO2H; (20)..(20) Xaa at positi) [Peptide 155]	5.97
Y-Aib-EGT-αMeF(2F)-TSDASI-αMeL-LD-Orn-K((2-[2-(2-Amino-ethoxy)-ethoxy]-acetyl)2-(γGlu)-CO—(CH2)16—CO2H)AQ-Aib-AFI-(D-Glu)-αMeY-LIEGGPSSGAPPPS-NH2 (YXEGTXTSDASIXLDXKAQXAFIXXLIEGGPSSGAPPPS; Aib, Orn, αMe residues, lipidated Lys, D-Glu, amide; (2)..(2) Xaa at position 2 is Aib; (6)..(6) Xaa at position 6 is alpha-methyl-Phe(2F); (13)..(13) Xaa at position 13 is alpha-methyl-Leu; (16)..(16) Xaa at position 16 is Orn; MOD_RES (17)..(17) Lys at position 17 is chemically modified by conjugation of the epsilon-amino group of the Lys side chain with (2-[2-(2-amino-ethoxy)-ethoxy]-acetyl)2-(gamma-Glu)-CO-(CH2)16- CO2H; (20)..(20) Xaa at positi) [Peptide 246]	2.48
Y-Aib-EGT-αMeF(2F)-TSDHSI-αMeL-LD-Dab-K((2-[2-(2-Amino-ethoxy)-ethoxy]-acetyl)2-(γGlu)-CO—(CH2)18—CO2H)AQ-Aib-TFI-(D-Glu)-YLIEGGPSSGAPPPS-NH2 (YXEGTXTSDHSIXLDXKAQXTFIXYLIEGGPSSGAPPPS; Aib, αMeF(2F), αMeL, Dab, D-Glu; lipidated K; amide; (2)..(2) Xaa at position 2 is Aib; (6)..(6) Xaa at position 6 is alpha-methyl-Phe(2F); (13)..(13) Xaa at position 13 is alpha-methyl-Leu; (16)..(16) Xaa at position 16 is Dab; MOD_RES (17)..(17) Lys at position 17 is chemically modified by conjugation of the epsilon-amino group of the Lys side chain with (2-[2-(2-amino-ethoxy)-ethoxy]-acetyl)2-(gamma-Glu)-CO-(CH2)18- CO2H; (20)..(20) Xaa at positi) [Peptide 172]	2.63
Y-Aib-EGT-αMeF(2F)-TSDHSI-αMeL-LD-Dap-K((2-[2-(2-Amino-ethoxy)-ethoxy]-acetyl)2-(γGlu)-CO—(CH2)18—CO2H)AQ-Aib-TFI-(D-Glu)-YLIEGGPSSGAPPPS-NH2 (YXEGTXTSDHSIXLDXKAQXTFIXYLIEGGPSSGAPPPS; Aib, αMeF(2F), αMeL, Dap, D-Glu; lipidated K; amide; (2)..(2) Xaa at position 2 is Aib; (6)..(6) Xaa at position 6 is alpha-methyl-Phe(2F); (13)..(13) Xaa at position 13 is alpha-methyl-Leu; (16)..(16) Xaa at position 16 is Dap; MOD_RES (17)..(17) Lys at position 17 is chemically modified by conjugation of the epsilon-amino group of the Lys side chain with (2-[2-(2-amino-ethoxy)-ethoxy]-acetyl)2-(gamma-Glu)-CO-(CH2)18- CO2H; (20)..(20) Xaa at positi) [Peptide 173]	4.80
Y-Aib-EGT-αMeF(2F)-TSDHSI-αMeL-LD-Orn-K((2-[2-(2-Amino-ethoxy)-ethoxy]-acetyl)2-(γGlu)-CO—(CH2)18—CO2H)AQ-Aib-TFI-(D-Glu)-YLIEGGPSSGAPPPS-NH2 (YXEGTXTSDHSIXLDXKAQXTFIXYLIEGGPSSGAPPPS; Aib, αMeF(2F), αMeL, Orn, D-Glu; lipidated K; amide; (2)..(2) Xaa at position 2 is Aib; (6)..(6) Xaa at position 6 is alpha-methyl-Phe(2F); (13)..(13) Xaa at position 13 is alpha-methyl-Leu; (16)..(16) Xaa at position 16 is Orn; MOD_RES (17)..(17) Lys at position 17 is chemically modified by conjugation of the epsilon-amino group of the Lys side chain with (2-[2-(2-amino-ethoxy)-ethoxy]-acetyl)2-(gamma-Glu)-CO-(CH2)18- CO2H; (20)..(20) Xaa at positi) [Peptide 171]	7.73
Y-Aib-EGT-αMeF(2F)-TSDHSI-αMeL-LDEK((2-[2-(2-Amino-ethoxy)-ethoxy]-acetyl)2-(γGlu)-CO—(CH2)14—CO2H)AQ-Aib-HFI-(D-Glu)-YLIEGGPSSGAPPPS-NH2 (YXEGTXTSDHSIXLDEKAQXHFIXYLIEGGPSSGAPPPS; Aib, αMeF(2F), αMeL, D-Glu; C16 diacid lipidated K; amide; (2)..(2) Xaa at position 2 is Aib; (6)..(6) Xaa at position 6 is alpha-methyl-Phe(2F); (13)..(13) Xaa at position 13 is alpha-methyl-Leu; MOD_RES (17)..(17) Lys at position 17 is chemically modified by conjugation of the epsilon-amino group of the Lys side chain with (2-[2-(2-amino-ethoxy)-ethoxy]-acetyl)2-(gamma-Glu)-CO-(CH2)14- CO2H; (20)..(20) Xaa at position 20 is Aib; (24)..(24) Xaa at positi) [Peptide 178]	9.77
